In assay [1] the target is T1, IgG1-CD27-A-P329R-E345R-LHalo (HaloTag NanoBret 618 ligand bound to the HaloTag).
T1 construct: Light chain fused to HaloTag; heavy chain as for m63
The assay can be described thus: NanoBRET proximity assay between NanoLuc- and HaloTag-tagged antibodies (5 µg/mL each) bound on cells, corrected BRET (mBU). For orientation: BRET reads energy transfer from a luciferase to a nearby fluorophore.

Assay [2] addresses recombinant His-tagged human FcγRIa (Sino Biological 10256-H08S-B) (human, UniProt P12314 16-288). As to the kind of experiment: SPR (Biacore), His-tagged FcγR captured on anti-His chip, antibody injected, resonance units after background subtraction. In general terms: Surface plasmon resonance follows binding to a sensor surface in real time, without labels.
Assay [3] deals with T2, recombinant His-tagged human FcγRIIa, 167-His [H] / H131 variant (human, UniProt P12318 34-218, limits assumed).
T2 construct: catalogue numbers differ; also called FcγRIIa-H; FcγRIIa-H131
T2 sequence (looked up): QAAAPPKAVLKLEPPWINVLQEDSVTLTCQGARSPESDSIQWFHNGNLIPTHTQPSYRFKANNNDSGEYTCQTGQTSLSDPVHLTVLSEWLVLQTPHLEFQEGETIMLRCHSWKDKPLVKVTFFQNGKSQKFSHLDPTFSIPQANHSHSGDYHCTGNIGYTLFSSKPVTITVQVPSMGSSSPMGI
Described as above.

In assay [4] the target is T3, recombinant His-tagged human FcγRIIa, 167-Arg [R] / R131 variant (human, UniProt P12318 34-218, limits assumed).
T3 construct: catalogue numbers differ; also called FcγRIIa-R; FcγRIIa-R131
T3 sequence (looked up): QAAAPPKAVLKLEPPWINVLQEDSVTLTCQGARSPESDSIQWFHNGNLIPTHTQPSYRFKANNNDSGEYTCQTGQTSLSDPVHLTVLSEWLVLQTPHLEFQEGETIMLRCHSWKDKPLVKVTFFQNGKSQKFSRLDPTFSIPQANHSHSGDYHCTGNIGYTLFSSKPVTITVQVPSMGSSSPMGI
Described as above.

In assay [5] the target is T4, recombinant His-tagged human FcγRIIb (human, UniProt P31994 43-217, limits assumed).
T4 sequence (looked up): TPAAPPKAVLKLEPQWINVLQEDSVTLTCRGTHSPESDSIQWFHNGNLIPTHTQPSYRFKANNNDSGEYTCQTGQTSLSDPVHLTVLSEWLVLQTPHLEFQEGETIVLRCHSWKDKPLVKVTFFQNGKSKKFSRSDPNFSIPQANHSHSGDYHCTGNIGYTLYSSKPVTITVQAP
Described as above.

The target in assay [6] is T5, recombinant His-tagged human FcγRIIIa, 176-Phe [F] / F158 variant (human, UniProt P08637 17-208).
T5 construct: also called FcγRIIIa-F; FcγRIIIa-F158
T5 sequence (P08637 17-208 limits assumed, change not shown): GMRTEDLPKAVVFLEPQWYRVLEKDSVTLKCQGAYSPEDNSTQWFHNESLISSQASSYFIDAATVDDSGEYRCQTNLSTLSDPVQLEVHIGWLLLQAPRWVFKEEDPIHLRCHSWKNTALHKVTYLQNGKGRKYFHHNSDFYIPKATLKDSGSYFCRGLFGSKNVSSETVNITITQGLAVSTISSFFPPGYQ
The description is as above.

Assay [7] concerns the target T6, recombinant His-tagged human FcγRIIIa, 176-Val [V] / V158 variant (human, UniProt P08637 17-208).
T6 construct: also called FcγRIIIa-V; FcγRIIIa-V158
Described as above.

For assay [8], the target named is T7, human CD27 on the cell surface (T cells, transfected HEK293F cells, Daudi cells, NFκB-luc2/CD27 Jurkat cells) (human, UniProt P26842 20-240).
T7 construct: Full length human CD27, endogenous or transfected; also called TNFRSF7
As to the kind of experiment: flow cytometry on CD4+ T cells in human healthy donor PBMC, FITC goat anti-human IgG F(ab')2, median FITC. Background: Flow cytometry measures light scatter and fluorescence of single cells or particles in a stream.

The target in assay [9] is T8, human FcγRIa on the cell surface (transfected CHO-S cells, M0/M1 macrophages, hMDM, FcγRI effector reporter … (human, UniProt P12314 16-374)).
T8 construct: whole, on cells; also called CD64
T8 sequence (P12314 16-374): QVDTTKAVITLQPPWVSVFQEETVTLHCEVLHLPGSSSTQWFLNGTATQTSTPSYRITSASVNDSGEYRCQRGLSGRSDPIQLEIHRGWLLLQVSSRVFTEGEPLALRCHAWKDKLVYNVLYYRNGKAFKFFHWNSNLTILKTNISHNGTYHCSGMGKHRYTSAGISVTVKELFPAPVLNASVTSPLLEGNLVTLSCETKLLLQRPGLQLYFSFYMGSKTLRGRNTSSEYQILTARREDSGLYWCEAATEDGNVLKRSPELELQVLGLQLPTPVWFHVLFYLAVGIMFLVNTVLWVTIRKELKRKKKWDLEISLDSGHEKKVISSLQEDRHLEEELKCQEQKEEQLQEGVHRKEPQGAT
As to the kind of experiment: flow cytometry on human monocyte-derived M0 macrophages, PE-labeled goat anti-human IgG, GeoMean-PE.

Assay [10] has as its target T8, human FcγRIa on the cell surface …. The assay can be described thus: flow cytometry on CHO-S cells transiently expressing human FcγRIa, % PE+ cells.
Assay [11] has as its target T9, rat PD-1 on transfected CHO-S cells (rat, UniProt D3ZIN8 25-287).
T9 sequence: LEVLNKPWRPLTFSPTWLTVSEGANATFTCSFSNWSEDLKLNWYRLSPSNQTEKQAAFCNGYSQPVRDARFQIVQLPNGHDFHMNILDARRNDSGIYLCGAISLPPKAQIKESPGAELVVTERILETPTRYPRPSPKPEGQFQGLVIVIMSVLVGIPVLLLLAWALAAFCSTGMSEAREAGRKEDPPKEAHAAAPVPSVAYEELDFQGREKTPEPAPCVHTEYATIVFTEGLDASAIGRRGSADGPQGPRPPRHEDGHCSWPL
As to the kind of experiment: flow cytometry on CHO-S cells transiently transfected with rat PD-1, gMFI (PE).

Assay [12] addresses T10, human PD-1 on the cell surface (transfected CHO-S cells; PD-1 effector reporter Jurkat T cells) (human, UniProt Q15116 25-288).
T10 construct: also called CD279
As to the kind of experiment: flow cytometry on CHO-S cells transiently transfected with human PD-1, gMFI (PE).

For assay [13], the target named is T11, mouse PD-1 on transfected CHO-S cells (mouse, UniProt Q02242 25-288).
T11 construct: whole, on cells
T11 sequence (looked up): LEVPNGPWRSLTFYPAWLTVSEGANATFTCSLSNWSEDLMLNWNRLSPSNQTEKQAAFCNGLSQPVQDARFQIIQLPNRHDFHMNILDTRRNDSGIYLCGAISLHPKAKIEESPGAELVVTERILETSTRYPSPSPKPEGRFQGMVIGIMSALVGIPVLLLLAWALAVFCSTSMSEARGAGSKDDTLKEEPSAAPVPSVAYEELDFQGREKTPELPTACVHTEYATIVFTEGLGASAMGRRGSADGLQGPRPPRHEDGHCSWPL
As to the kind of experiment: flow cytometry on CHO-S cells transiently transfected with mouse PD-1, gMFI (PE).

In assay [14] the target is cynomolgus monkey PD-1 on transfected CHO-S cells (cynomolgus monkey, UniProt B0LAJ3 25-288). The assay can be described thus: flow cytometry on CHO-S cells transiently transfected with cynomolgus monkey PD-1, gMFI (PE).
Chain of cynomolgus monkey PD-1 on transfected CHO-S cells (B0LAJ3 entry or part of it limits assumed): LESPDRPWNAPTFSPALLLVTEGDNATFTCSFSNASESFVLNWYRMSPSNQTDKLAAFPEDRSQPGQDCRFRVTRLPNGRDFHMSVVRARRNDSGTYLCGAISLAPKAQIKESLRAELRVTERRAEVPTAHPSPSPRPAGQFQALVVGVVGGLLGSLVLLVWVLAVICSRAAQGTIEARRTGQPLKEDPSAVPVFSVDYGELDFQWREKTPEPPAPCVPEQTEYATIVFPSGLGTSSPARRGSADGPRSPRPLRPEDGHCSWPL
For assay [15], the target named is T7, human CD27 on the cell surface (T …). The assay can be described thus: flow cytometry on T cells in human PBMC (endogenous CD27), PE-labeled goat anti-human IgG, median MFI PE.
For assay [16] the target is unchanged. The assay can be described thus: flow cytometry on HEK293F cells transfected with human CD27, PE-labeled goat anti-human IgG, median MFI PE.
Assay [17] concerns the target human CD27-A59T variant on transfected HEK293F cells (human, UniProt P26842 20-260). As to the kind of experiment: flow cytometry on HEK293F cells transfected with human CD27-A59T, PE-labeled goat anti-human IgG, median MFI PE.
The target of assay [18] is T12, cynomolgus monkey CD27 on the cell surface (T cells, transfected HEK293F cells) (cynomolgus monkey, UniProt P26842 20-260 (human entry)).
T12 construct: also called Cyno CD27
T12 chain: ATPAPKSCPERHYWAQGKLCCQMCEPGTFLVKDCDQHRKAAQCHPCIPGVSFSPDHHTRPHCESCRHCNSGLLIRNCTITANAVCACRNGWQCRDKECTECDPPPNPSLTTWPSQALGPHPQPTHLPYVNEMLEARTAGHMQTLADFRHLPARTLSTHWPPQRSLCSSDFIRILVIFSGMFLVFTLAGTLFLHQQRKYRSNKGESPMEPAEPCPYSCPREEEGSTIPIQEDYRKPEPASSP
As to the kind of experiment: flow cytometry on T cells in cynomolgus monkey PBMC (endogenous CD27), PE-labeled goat anti-human IgG, median MFI PE.

Assay [19] has as its target T12, cynomolgus monkey CD27 on the cell …. The assay can be described thus: flow cytometry on HEK293F cells transfected with cynomolgus monkey CD27, PE-labeled goat anti-human IgG, median MFI PE.

T1 sequence (heavy, as listed by the source): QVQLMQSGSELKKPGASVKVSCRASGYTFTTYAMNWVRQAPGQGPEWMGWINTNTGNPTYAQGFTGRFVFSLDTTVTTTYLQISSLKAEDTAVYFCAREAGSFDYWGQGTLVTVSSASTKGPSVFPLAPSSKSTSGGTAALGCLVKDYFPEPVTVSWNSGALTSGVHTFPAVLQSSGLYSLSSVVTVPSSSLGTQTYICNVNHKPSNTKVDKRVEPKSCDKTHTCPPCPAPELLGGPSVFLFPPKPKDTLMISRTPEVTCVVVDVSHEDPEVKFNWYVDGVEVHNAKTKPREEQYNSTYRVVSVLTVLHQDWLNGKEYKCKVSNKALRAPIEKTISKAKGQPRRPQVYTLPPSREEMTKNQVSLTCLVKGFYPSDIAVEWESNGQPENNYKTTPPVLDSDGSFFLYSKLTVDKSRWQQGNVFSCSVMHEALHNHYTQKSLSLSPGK
T10 sequence (Q15116 25-288 limits assumed): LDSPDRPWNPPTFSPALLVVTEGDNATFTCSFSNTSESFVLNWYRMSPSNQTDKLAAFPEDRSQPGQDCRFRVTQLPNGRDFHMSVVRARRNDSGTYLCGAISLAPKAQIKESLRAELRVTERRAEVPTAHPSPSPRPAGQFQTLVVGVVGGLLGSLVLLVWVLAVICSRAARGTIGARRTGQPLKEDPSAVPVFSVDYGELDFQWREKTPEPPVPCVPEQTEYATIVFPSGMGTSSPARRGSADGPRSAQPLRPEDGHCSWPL
Chain of recombinant His-tagged human FcγRIa (Sino Biological 10256-H08S-B) (P12314 16-288 limits assumed, stated change not applied): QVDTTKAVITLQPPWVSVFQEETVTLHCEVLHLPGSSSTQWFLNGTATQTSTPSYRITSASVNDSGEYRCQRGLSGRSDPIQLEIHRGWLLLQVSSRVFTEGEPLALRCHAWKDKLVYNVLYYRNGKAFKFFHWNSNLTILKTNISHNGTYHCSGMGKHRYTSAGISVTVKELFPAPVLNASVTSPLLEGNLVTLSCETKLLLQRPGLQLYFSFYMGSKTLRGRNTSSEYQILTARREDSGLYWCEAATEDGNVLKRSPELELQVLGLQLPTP
T6 sequence (P08637 other isoform, or with tags, fused parts or gaps mutant limits assumed): as the sequence (P08637 17-208 limits assumed, change not shown) above, with F160V counted along it

B1: IgG1-CD27-A-P329R-E345R-LNLuc (antibody)
heavy: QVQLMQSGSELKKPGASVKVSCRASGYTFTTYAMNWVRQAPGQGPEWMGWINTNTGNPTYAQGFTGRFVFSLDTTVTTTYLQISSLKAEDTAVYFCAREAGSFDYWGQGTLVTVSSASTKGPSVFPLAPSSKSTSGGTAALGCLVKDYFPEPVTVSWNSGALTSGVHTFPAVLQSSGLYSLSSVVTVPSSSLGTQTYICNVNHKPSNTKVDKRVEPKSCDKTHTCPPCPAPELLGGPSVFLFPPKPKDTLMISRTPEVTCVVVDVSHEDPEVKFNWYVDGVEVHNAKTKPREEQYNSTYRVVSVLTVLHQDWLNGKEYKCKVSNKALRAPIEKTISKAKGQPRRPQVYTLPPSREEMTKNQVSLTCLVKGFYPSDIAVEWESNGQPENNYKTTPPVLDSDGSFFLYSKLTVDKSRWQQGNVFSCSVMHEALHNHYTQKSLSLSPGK
light: QSALTQPASVSGSPGQSITISCTGTSSDVYYYNYVSWYQQHPGRAPKLVIYDVSNRPSGVSNRFSGSKSGNTASLTISGLRAEDEADYYCSSYTVNRVWVFGGGTKLTVLGQPKAAPSVTLFPPSSEELQANKATLVCLISDFYPGAVTVAWKADSSPVKAGVETTTPSKQSNNKYAASSYLSLTPEQWKSHRSYSCQVTHEGSTVEKTVAPTECSSLGSSGVFTLEDFVGDWRQTAGYNLDQVLEQGGVSSLFQNLGVSVTPIQRIVLSGENGLKIDIHVIIPYEGLSGDQMGQIEKIFKVVYPVDDHHFKVILHYGTLVIDGVTPNMIDYFGRPYEGIAVFDGKKITVTGTLWNGNKIIDERLINPDGSLLFRVTINGVTGWRLCERILA
As to B1, in assay [1], the binding result is reported as “binds”.

B2: IgG1-b12, anti-HIV gp120 antibody with wild-type IgG1 Fc (antibody)
heavy: not shown
light: EIVLTQSPGTLSLSPGERATFSCRSSHSIRSRRVAWYQHKPGQAPRLVIHGVSNRASGISDRFSGSGSGTDFTLTITRVEPEDFALYYCQVYGASSYTFGQGTKLERKRTVAAPSVFIFPPSDEQLKSGTASVVCLLNNFYPREAKVQWKVDNALQSGNSQESVTEQDSKDSTYSLSSTLTLSKADYEKHKVYACEVTHQGLSSPVTKSFNRGEC
notes: also called WT IgG1-b12; ctrl; copies: 2 + 2
B2: in assay [2], the EC50 (read off the curve) (in general, the concentration giving half of the maximal effect) was ~60 nM. Also, the binding result in assay [3], in [4], in [5], in assay [6] and in assay [7] was “binds” in each case.

B3: IgG1-b12-P329R-E345R (antibody)
VH: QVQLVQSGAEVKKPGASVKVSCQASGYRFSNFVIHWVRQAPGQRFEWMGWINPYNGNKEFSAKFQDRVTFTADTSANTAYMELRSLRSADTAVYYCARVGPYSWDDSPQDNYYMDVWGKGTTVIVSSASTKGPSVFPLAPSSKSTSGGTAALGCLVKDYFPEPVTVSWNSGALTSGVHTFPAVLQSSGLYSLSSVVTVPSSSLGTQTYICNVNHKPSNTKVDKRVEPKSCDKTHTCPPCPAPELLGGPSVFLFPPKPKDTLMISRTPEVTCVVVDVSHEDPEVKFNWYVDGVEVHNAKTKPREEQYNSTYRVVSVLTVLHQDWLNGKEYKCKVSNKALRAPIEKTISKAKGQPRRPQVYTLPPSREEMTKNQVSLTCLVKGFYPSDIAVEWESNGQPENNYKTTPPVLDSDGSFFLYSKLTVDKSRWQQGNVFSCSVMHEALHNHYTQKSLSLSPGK
VL: EIVLTQSPGTLSLSPGERATFSCRSSHSIRSRRVAWYQHKPGQAPRLVIHGVSNRASGISDRFSGSGSGTDFTLTITRVEPEDFALYYCQVYGASSYTFGQGTKLERKRTVAAPSVFIFPPSDEQLKSGTASVVCLLNNFYPREAKVQWKVDNALQSGNSQESVTEQDSKDSTYSLSSTLTLSKADYEKHKVYACEVTHQGLSSPVTKSFNRGEC
notes: also called ctrl; IgG1-b12-E345R-P329R
For the molecule B3, the binding result is “no binding (tested: 10 µg/ml)” in assay [8] and “no binding (tested: 30 µg/mL)” in assay [9].

B4: IgG1-ctrl-FERR (b12 antigen-binding domains, IgG1m(f)-L234F-L235E-G236R-K409R) (antibody)
heavy: QVQLVQSGAEVKKPGASVKVSCQASGYRFSNFVIHWVRQAPGQRFEWMGWINPYNGNKEFSAKFQDRVTFTADTSANTAYMELRSLRSADTAVYYCARVGPYSWDDSPQDNYYMDVWGKGTTVIVSSASTKGPSVFPLAPSSKSTSGGTAALGCLVKDYFPEPVTVSWNSGALTSGVHTFPAVLQSSGLYSLSSVVTVPSSSLGTQTYICNVNHKPSNTKVDKRVEPKSCDKTHTCPPCPAPEFERGPSVFLFPPKPKDTLMISRTPEVTCVVVDVSHEDPEVKFNWYVDGVEVHNAKTKPREEQYNSTYRVVSVLTVLHQDWLNGKEYKCKVSNKALPAPIEKTISKAKGQPREPQVYTLPPSREEMTKNQVSLTCLVKGFYPSDIAVEWESNGQPENNYKTTPPVLDSDGSFFLYSRLTVDKSRWQQGNVFSCSVMHEALHNHYTQKSLSLSPG
light: EIVLTQSPGTLSLSPGERATFSCRSSHSIRSRRVAWYQHKPGQAPRLVIHGVSNRASGISDRFSGSGSGTDFTLTITRVEPEDFALYYCQVYGASSYTFGQGTKLERKRTVAAPSVFIFPPSDEQLKSGTASVVCLLNNFYPREAKVQWKVDNALQSGNSQESVTEQDSKDSTYSLSSTLTLSKADYEKHKVYACEVTHQGLSSPVTKSFNRGEC
Turning to B4, the binding result in assay [10], in assay [11], in assay [12], in [13] and in assay [14] was “no binding (tested: 10 µg/mL)” in each case.

B5: IgG1-CD27-A carrying F405L-L234F-L235E-D265A in the IgG Fc domain (antibody, V domains shown)
VH: QVQLMQSGSELKKPGASVKVSCRASGYTFTTYAMNWVRQAPGQGPEWMGWINTNTGNPTYAQGFTGRFVFSLDTTVTTTYLQISSLKAEDTAVYFCAREAGSFDYWGQGTLVTVSS
VL: QSALTQPASVSGSPGQSITISCTGTSSDVYYYNYVSWYQQHPGRAPKLVIYDVSNRPSGVSNRFSGSKSGNTASLTISGLRAEDEADYYCSSYTVNRVWVFGGGTKLTVL
Consider B5, for which the “EC50 (read off the curve)” value in [15] was ~0.04 µg/mL; in assay [16], ~0.1 µg/mL; in [17], ~0.2 µg/mL; in assay [18] it was ~0.03 µg/mL; in assay [19], ~0.06 µg/mL.

The values above are taken from patent US20260250404A1 (Genmab, published 2026).
